Experimental data taken from the supplement of paper PMC10065799, “High-throughput profiling of sequence recognition by tyrosine kinases and SH2 domains using bacterial peptide display” (eLife, 2023).

How the values were obtained:
c-Src SH2 = test: SH2 binding enrichment of the phosphorylated peptide, bacterial display (enrichment ratio); higher = better substrate or ligand; peptides without Tyr show the background
Grb2 SH2 = Grb2 SH2 (UniProt P62993); test: as above
SHP2-C SH2 = test: as above
Fyn = Fyn (UniProt P06241); test: phosphorylation enrichment, bacterial display (enrichment ratio); higher = better substrate or ligand; peptides without Tyr show the background
Chain of Fyn (P06241 whole entry, looked up): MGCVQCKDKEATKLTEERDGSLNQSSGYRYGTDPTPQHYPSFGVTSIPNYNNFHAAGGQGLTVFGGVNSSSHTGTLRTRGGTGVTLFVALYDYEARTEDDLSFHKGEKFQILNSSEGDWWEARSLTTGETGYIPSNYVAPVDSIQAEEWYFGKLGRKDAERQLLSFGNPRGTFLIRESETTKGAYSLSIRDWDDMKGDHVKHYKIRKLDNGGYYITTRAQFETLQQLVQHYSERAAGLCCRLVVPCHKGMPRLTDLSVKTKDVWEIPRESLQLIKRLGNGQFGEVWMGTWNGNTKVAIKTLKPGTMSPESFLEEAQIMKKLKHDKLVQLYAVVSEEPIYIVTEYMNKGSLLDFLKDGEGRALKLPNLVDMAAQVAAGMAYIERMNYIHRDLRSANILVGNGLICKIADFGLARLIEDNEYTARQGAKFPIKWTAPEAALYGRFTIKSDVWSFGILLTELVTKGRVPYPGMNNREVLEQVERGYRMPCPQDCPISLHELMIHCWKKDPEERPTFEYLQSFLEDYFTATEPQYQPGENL

EPHB1 = EPHB1 (UniProt P54762); test: as above
Chain of EPHB1 (P54762 whole entry, looked up): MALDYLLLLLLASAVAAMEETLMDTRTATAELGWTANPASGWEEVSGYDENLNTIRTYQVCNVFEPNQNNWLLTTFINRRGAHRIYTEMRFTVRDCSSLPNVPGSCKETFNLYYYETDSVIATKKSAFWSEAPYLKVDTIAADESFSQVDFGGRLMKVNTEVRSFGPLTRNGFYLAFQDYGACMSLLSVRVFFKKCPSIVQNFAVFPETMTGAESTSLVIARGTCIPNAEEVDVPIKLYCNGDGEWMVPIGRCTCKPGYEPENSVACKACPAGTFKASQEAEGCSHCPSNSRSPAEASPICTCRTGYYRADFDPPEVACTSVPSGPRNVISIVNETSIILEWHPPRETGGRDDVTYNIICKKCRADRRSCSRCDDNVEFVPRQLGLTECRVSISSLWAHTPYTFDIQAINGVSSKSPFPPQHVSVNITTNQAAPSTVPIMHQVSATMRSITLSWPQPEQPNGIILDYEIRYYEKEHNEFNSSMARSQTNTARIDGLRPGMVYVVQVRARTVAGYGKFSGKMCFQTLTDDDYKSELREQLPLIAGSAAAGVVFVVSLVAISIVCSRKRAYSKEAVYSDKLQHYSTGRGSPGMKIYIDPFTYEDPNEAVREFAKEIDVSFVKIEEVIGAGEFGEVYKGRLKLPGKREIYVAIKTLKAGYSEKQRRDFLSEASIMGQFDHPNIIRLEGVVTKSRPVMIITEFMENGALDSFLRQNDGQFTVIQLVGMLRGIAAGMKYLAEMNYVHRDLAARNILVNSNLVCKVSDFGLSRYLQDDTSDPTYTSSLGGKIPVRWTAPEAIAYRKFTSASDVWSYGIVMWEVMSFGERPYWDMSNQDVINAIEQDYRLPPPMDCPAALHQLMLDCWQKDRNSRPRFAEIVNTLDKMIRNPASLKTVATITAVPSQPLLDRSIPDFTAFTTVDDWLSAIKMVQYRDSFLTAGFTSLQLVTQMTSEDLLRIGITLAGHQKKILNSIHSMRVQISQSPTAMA

c-Src = test: as above
Fes = Fes (UniProt P07332); test: as above
FGFR3 = FGFR3 (UniProt P22607); test: as above
Chain of FGFR3 (P22607 whole entry, looked up): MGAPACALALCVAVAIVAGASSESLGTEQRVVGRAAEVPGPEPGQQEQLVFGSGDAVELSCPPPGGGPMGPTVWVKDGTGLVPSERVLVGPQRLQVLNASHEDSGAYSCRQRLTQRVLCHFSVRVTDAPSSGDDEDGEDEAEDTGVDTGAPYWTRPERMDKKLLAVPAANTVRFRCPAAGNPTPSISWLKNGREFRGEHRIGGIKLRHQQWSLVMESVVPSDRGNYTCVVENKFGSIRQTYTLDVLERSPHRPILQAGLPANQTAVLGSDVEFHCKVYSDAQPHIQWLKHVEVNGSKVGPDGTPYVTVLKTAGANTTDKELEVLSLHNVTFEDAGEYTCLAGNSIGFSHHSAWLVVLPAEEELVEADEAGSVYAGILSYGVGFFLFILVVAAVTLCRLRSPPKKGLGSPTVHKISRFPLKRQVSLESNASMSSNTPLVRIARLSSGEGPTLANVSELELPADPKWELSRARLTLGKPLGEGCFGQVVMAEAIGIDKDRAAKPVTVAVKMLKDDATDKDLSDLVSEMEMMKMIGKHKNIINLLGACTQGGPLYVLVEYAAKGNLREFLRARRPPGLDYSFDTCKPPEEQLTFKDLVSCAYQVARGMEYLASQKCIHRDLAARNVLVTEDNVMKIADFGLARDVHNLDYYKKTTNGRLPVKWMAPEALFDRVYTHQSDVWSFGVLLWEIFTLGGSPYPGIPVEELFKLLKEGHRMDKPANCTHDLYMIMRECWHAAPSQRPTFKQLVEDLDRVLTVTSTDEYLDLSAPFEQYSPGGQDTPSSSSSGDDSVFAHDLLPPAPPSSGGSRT

Hck = Hck (UniProt P08631); test: as above
Chain of Hck (P08631 whole entry, looked up): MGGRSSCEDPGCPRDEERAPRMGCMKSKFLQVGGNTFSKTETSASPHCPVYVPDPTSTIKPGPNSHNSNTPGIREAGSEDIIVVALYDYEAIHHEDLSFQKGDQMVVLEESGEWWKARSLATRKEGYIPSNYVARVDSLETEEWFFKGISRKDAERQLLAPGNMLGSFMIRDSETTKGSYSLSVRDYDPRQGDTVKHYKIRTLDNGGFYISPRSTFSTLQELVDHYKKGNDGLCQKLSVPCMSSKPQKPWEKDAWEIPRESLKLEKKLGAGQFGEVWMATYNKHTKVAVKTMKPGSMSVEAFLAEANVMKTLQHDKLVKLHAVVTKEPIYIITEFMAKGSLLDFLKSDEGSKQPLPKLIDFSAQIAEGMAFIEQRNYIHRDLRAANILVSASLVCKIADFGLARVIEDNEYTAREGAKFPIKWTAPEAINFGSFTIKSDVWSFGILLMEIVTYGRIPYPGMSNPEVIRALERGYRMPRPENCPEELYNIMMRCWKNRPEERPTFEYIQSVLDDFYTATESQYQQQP

EPHB2 = EPHB2 (UniProt P29323); test: as above
Chain of EPHB2 (P29323 whole entry, looked up): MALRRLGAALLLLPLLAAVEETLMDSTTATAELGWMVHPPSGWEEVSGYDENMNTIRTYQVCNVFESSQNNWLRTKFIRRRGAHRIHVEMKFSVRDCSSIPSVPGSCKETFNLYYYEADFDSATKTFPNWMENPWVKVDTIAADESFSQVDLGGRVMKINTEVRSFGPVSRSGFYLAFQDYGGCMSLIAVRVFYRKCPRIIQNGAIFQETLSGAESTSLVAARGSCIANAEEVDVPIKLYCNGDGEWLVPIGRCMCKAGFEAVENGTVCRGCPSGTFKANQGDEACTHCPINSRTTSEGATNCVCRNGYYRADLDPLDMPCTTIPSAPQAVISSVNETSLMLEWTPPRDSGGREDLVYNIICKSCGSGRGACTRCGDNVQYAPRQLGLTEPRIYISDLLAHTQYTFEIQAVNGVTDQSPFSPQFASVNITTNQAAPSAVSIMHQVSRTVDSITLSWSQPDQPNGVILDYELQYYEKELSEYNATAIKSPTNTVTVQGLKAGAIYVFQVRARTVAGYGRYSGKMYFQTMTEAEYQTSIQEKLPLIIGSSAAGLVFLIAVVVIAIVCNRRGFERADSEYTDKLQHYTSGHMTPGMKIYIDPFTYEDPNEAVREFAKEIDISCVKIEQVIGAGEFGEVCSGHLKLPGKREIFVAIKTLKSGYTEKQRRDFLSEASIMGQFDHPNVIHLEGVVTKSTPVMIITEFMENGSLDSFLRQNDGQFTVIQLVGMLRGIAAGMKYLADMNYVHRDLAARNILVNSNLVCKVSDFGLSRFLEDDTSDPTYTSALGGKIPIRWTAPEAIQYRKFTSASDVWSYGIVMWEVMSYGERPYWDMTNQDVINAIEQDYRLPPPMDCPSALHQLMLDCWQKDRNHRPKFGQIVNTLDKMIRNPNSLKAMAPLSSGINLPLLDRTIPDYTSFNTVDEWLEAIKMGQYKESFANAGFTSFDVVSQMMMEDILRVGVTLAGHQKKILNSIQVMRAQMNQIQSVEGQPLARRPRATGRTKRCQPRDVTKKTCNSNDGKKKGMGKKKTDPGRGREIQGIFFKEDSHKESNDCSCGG

c-Abl (mouse) = test: as above
FGFR1 = FGFR1 (UniProt P11362); test: as above
Fer (mouse) = test: as above
AncSZ = test: as above
MERTK = MERTK (UniProt Q12866); test: as above
Jak2 = Jak2 (UniProt O60674); test: as above
Chain of Jak2 (O60674 whole entry, looked up, the tested form may be a part): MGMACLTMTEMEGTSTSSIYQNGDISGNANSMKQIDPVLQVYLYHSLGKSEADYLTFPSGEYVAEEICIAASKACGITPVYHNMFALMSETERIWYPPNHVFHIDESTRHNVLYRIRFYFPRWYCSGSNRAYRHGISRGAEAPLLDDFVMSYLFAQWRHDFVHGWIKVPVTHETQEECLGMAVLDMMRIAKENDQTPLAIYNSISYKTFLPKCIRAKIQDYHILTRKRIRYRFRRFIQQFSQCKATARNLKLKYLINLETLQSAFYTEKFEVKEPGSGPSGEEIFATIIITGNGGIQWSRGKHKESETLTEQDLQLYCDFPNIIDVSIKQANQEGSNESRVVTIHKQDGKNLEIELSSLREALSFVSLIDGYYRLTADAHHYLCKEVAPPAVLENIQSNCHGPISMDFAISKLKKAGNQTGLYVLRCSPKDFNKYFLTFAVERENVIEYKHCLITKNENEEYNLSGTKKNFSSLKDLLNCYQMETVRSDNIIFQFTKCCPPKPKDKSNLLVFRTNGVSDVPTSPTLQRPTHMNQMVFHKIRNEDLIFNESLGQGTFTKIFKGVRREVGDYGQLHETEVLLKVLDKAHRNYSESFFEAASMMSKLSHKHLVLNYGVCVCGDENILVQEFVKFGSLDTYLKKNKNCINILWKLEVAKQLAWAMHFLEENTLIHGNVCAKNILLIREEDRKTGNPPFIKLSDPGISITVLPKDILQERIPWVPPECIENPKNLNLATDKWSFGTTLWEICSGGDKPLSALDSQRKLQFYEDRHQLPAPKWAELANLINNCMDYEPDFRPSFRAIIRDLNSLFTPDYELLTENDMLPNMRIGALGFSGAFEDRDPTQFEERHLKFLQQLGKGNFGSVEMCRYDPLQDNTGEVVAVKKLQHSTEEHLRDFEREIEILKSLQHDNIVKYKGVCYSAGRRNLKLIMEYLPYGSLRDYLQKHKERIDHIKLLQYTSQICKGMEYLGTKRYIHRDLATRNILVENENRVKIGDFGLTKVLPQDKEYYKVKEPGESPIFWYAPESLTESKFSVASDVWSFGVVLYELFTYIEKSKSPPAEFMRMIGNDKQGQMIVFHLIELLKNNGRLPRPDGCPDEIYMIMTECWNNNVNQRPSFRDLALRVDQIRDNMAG
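Wherever SH2 binding enrichment of the phosphorylated peptide, bacterial display is given: peptide library displayed on the E. coli surface as eCPX fusions, selected cells deep-sequenced, score is each peptide's frequency after selection divided by its frequency in the input.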
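Wherever phosphorylation enrichment, bacterial display is given: 11-residue human phosphosite peptides and single-mutation variants displayed on the E. coli surface, counted by deep sequencing, each peptide's frequency after selection divided by its frequency in the unselected input library; frequency after pTyr selection over input frequency; kinase dosed for 20-30% of maximal phosphorylation in three min.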

Sequence	SH2 binding enrichment (c-Src SH2)	SH2 binding enrichment (Grb2 SH2)	SH2 binding enrichment (SHP2-C SH2)	phosphorylation enrichment (Fyn)	phosphorylation enrichment (EPHB1)	phosphorylation enrichment (c-Src)	phosphorylation enrichment (Fes)	phosphorylation enrichment (FGFR3)	phosphorylation enrichment (Hck)	phosphorylation enrichment (EPHB2)	phosphorylation enrichment (c-Abl (mouse))	phosphorylation enrichment (FGFR1)	phosphorylation enrichment (Fer (mouse))	phosphorylation enrichment (AncSZ)	phosphorylation enrichment (MERTK)	phosphorylation enrichment (Jak2)
EESREYDRLYE [PIK3R1_Y463_K459E]	7.14	0.671	0.701	0.751	0.761	0.714	1.44	1.19	0.865	0.7	1.02	0.708	0.641	1.42	0.465	1.45
INASGYRIGPA [ACSM1_Y477]	0.453	0.799	0.633	0.328	0.371	0.433	0.502	0.367	0.385	0.374	0.36	0.349	0.467	0.479	0.33	0.401
QFNIQYSSSAA [ERBB2IP_Y981_YF]	0.557	0.705	0.623	0.485	0.51	0.633	1.31	0.661	0.673	0.542	1.01	0.832	0.458	1.11	0.962	0.935
MPPHICAITDT [MYH9_Y151_Y151C]	0.657	1.1	0.706	0.51	0.628	0.529	1.1	0.685	0.538	0.53	1.34	0.578	0.631	0.809	0.473	0.981
VLDSHYPEDEV [C1QBP_Y188_C186S]	0.573	1.06	0.697	0.473	0.611	0.525	1.26	0.736	0.516	0.564	0.746	0.52	0.51	1.33	0.488	1.16
ARVDTYCRHNF [HLA-DRB1_Y107_A103R_YF]	0.757	1.01	0.743	0.439	0.41	0.496	0.992	0.53	0.45	0.494	0.677	0.443	0.433	0.7	0.486	0.731
GDYLSYREFHS [ERBIN_Y1107]	0.407	0.972	0.539	2.8	16.8	2.48	0.903	3.56	2.42	23.1	19	4.66	0.414	2.1	0.489	1.54
KSRQIYDAFIM [GRK3_Y109_R104K_YF]	0.477	0.703	0.947	13	4.7	9.72	0.941	0.6	10.4	6.65	16.5	0.576	14.4	0.764	11.7	0.799
LWQSIYNLDAE [TNNT2_Y251_E254D]	0.456	0.771	0.639	9.69	0.883	6.55	1.2	0.784	6.38	1.18	0.706	0.658	0.513	1.38	0.497	0.981
FMRGMYFRMKD [PLA2G6_Y541_YF]	0.767	0.897	1.17	0.455	0.518	0.417	1.12	0.657	0.428	0.542	0.645	0.442	0.399	1.16	0.419	1.14
DVMDLYKTLRG [NR3C1_Y30_F29L]	0.738	0.724	0.789	0.437	0.483	0.421	0.776	0.861	0.904	0.535	0.521	0.585	0.381	0.773	0.431	0.517
MKNQKYGRIIM [HSD17B4_Y143_K140N]	1.05	1.49	1.64	0.424	0.376	0.301	0.646	0.386	0.439	0.34	0.54	0.433	0.341	0.527	0.301	0.587
ADLTEYLSTHY [UQCRC1_Y219]	0.638	1.13	0.716	0.549	0.58	0.625	0.972	0.697	0.555	0.622	0.649	0.52	0.553	1.01	0.462	0.908
VHNLNYYKKTT [FGFR3_Y647_D646N]	0.539	1.04	0.746	0.435	0.429	0.487	0.682	0.665	0.464	0.449	0.671	0.447	0.32	0.506	0.528	0.728
LNEQHYGGLTG [PGAM4_Y92_R90Q]	0.518	0.958	0.761	0.956	0.949	1.04	1.2	0.972	0.902	0.574	1.5	0.659	0.769	0.752	0.845	0.915
SVVVPYEAPEV [TP53_Y220_P222A]	1.26	0.79	0.808	0.442	0.649	0.405	1.01	0.8	0.492	0.485	0.79	0.483	0.546	1.2	0.969	0.998
DYNPNYCFAGK [ALK_Y1096]	0.532	0.799	0.788	0.607	2.62	0.63	1.03	0.778	0.563	1.07	0.812	0.641	0.735	1.82	0.906	0.873
